Data reported in US20250171549A1.
Several values for one entry are separate records, joined by “and”; a condition that tells them apart may be missing. Equal values may be shown once.

Tests used:
[1] = target: cynomolgus monkey CCR8 (comprising threonine at position four) (cynomolgus monkey); experiment: KinExA, 293T cells expressing cynomolgus CCR8
[2] = target: cynomolgus monkey CCR8 (comprising threonine at position four) (cynomolgus monkey); experiment: flow cytometry, primary cynomolgus Tregs (PBMC, CD4+CD25+CD127- gate)

cynomolgus monkey CCR8 (comprising threonine at position four) (cynomolgus monkey), sequence (O97665 other isoform, or with tags, fused parts or gaps): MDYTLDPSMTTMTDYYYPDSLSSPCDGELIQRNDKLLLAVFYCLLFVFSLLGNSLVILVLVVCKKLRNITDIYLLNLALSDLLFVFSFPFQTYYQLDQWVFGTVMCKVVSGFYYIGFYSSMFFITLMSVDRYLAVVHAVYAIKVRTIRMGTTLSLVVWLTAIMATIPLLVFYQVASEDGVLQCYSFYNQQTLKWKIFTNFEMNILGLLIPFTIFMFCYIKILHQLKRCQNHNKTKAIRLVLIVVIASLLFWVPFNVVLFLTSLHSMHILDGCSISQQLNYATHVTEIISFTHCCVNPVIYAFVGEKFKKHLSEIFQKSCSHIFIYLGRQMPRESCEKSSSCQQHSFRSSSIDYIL

Kd [1]: > 50 nM
CCR8+CD127-CD25+CD4, % positive [2]: 8.5% and 17.9%
B1: Antibody 2 IgG2 (antibody, V domains shown)
VH: QVQLVESGGGVVQPGRSLRLSCAASGFTFSNYGMHWVRQAPGKGLEWVAVISYDGSNKFYADSVKGRFTISRDNSKKTLYLQMSSLRVEDTAVYYCARAGGIGRFDYWGQGTLVTVSS
VL: DFVMTQTPLSLSVTPGQPASISCKYSQSLLHSDGKTYLFWYLQKPGQPPHLLIYEVSNRFSGVPDRFSGSGSGTDFTLKISRVEAEDVGLYYCMQTLKLPLTFGGGTKVEINR
